The results in this text go back to article PMC7067600 (Nature structural & molecular biology, 2019).

The chains are these.
T1: FANCI (isolated) (Gallus gallus, UniProt B0I564 1-1338)
T1 sequence: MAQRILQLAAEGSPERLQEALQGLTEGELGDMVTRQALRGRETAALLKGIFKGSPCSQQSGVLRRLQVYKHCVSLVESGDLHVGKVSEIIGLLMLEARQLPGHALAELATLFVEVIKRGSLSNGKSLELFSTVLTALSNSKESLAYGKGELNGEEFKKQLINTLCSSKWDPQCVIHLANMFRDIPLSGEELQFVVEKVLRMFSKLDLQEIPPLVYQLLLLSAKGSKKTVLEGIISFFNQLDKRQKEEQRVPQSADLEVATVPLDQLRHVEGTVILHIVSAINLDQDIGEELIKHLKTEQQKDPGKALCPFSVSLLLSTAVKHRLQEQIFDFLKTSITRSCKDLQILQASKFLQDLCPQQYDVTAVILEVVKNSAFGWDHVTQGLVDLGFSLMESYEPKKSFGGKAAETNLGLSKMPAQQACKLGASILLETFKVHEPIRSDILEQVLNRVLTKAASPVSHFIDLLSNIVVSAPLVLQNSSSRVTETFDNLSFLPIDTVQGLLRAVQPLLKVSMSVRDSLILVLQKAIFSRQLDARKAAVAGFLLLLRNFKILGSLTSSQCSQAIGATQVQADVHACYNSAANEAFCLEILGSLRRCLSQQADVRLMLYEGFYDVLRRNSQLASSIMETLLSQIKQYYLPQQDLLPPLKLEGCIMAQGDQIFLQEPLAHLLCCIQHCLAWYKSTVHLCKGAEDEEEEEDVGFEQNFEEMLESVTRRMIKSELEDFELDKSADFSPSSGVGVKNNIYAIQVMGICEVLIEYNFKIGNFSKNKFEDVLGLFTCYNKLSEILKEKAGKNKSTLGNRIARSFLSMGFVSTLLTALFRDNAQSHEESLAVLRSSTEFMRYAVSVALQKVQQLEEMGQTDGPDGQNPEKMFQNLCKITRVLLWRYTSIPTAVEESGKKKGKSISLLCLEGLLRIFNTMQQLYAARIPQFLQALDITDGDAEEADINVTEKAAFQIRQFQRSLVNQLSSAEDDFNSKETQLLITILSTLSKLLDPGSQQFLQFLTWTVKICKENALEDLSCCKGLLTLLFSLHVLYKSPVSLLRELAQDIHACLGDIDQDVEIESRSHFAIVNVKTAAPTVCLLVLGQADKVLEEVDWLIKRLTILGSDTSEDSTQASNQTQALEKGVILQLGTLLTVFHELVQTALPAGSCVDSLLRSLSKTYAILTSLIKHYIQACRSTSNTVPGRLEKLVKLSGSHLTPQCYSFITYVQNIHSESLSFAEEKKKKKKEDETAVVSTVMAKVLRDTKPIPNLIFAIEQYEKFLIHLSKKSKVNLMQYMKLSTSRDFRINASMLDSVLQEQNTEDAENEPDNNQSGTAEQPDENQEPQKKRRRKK

B1: StrepII-tagged Gallus gallus FANCD2 (expressed alone) (natural protein, UniProt Q68Y81 1-1439, looked up)
chain: MVSKRKLSKIDAAEESSKTDLQSRCPETKRSRISDKRAPSQGGLENEGVFEELLRTSGIILKVGEGQNEIAVDQTAFQKKLRVALEKHPSYPGVVNEFISGLESHIKDRSQFKNCLLPCTPARTEGSRTLVHSYCESLIKLLLGIKILQPAVVTLLLEKIPEFFFDVVGTFGTNFPRLIVNQFKWLDGLLDSQDLVKKLMQMLSVSPVPIQHDIITSLPEILEDSQQNEVARELSCLLKQGRRLTVPILDALSRLDLDAELLAEVRQSAMTIVPSVKLEDLPVVIKFILHNVKAADAVEVISDLRKSLDLSSCVLPLQLLGSQRKLKSQAQASSSMSQVTTSQNCVKLLFDVIKQAVRFQKDVSEAWIKAIENSTSVSDHKVLDLIVLLLIHSTNSKNRKQTEKVLRSKIRLGCMPEQLMQNAFQNHSMVIKDFFPSILSLAQTFLHSAHPAVVSFGSCMYKQAFAVFDSYCQQEVVCALVTHVCSGNETELDISLDVLTDLVILHPSLLLRYATFVKTILDSMQKLNPCQIRKLFYILSTLAFSQRQEGSYIQDDMHMVIRKWLSSSVPNHKQMGIIGAVTMMGSVALKRNEADGGLLERPELSIECDGQLSTLLDLVGFCCEQTPEVLALYYDELANLIEKQKGNLDLQLLDKFGKSLVEDFPNDFVVDLSPTVDGSFLFPVKSLYNLDEDETQGAIAINLLPLVSQSEPGRVADEMSNSRKRVVSPICLSPCFRLLRLYTGEQNNGSLEEIDALLGCPLYLTDLEVEGKLDSLSKQEREFLCSLLFYALNWFREVVNAFCQQQDAEMKGKVLTRLQNITELQNVLGKCLAATPGYVPPPATFDSEAPEGVPSINAGGPVRKKNGKKRKSDSSKACSAERTQADESSDGNQPDTELSELEKSATEKETGNPLAQLQSYRPYFRELDLEVFSVLHCGLLTKSILDTEMHTEASEVVQLGPAELCFLLDDMCWKLEHVLTPGSTRRVPFLKERGNKDVGFSHLCQRSPKEVAVCVVKLLKPLCNHMENMHNYFQTVIPNQGVVDESGLNIQEYQLMSSCYHQLLLAFRLLFAWSGFSQHENSNLLRSALQVLADRLKPGETEFLPLEELISESFQYLLNFQASIPSFQCAFILTQVLMAISEKPMTGWKREKMASLAKQFLCQSWMKPGGDREKGSHFNSALHTLLCVYLEHTDNILKAIEEISSVGVPELINSAKDGCSSTYPTLSRQTFPVFFRVMMAQLESSVKSIPAGKPSDSGEVQLEKLLKWNIAVRNFHILINLVKVFDSRPVLSICLKYGRLFVEAFLKLAMPLLDHSFKKHRDDVQSLLKTLQLSTRQLHHMCGHSKIHQDLGLTNHVPLLKKSLEQFVYRVKAMLAFNHCQEAFWVGVLKNRDLQGEEILSQASAAPEEDSAEGSEEDTADSAAEEPDGTDSDSGGAGR
B2: 39 bp dsDNA (dsDNA)
DNA 1: ATCGATGTCTCTAGACAGCTGCTCAGGATTGATCTGTAA
DNA 2: TTACAGATCAATCCTGAGCAGCTGTCTAGAGACATCGAT
B3: His-tagged Gallus gallus FANCI (expressed alone) (natural protein, UniProt B0I564 1-1338, looked up)
chain: T1 sequence
B4: 19 bp dsDNA (dsDNA)
DNA 1: ATCGATGTCTCTAGACAGC
DNA 2: GCTGTCTAGAGACATCGAT
B5: 14 bp dsDNA (dsDNA)
DNA 1: ATCGATGTCTCTAG
DNA 2: CTAGAGACATCGAT

The data set “SEC” deals with the molecule itself. As to the kind of experiment: SEC. Background: Size exclusion chromatography separates by hydrodynamic size, large species first.
Another data set concerns the target T1, FANCI (isolated). As to the kind of experiment: EMSA.
The target of a further data set is FANCD2 (isolated) (Gallus gallus, UniProt Q68Y81 1-1439). As to the kind of experiment: EMSA.
The target in data set [1] is B1. As to the kind of experiment: pull-down.
Data set [2] has as its target FANCD2 (in co-expressed D2-I);FANCI (in co-expressed D2-I) (Gallus gallus;Gallus gallus, UniProt Q68Y81;B0I564 1-1439;1-1338, |). In words: EMSA. In general terms: Mobility shift assays separate free from complexed probe on a gel.

As to B1, the “stoichiometry N” value in the data set “SEC” was determined as 2.

Turning to B2, the binding result was “binds” with FANCI (isolated) and “no binding” with FANCD2 (isolated). For the molecule B3, in data set [1], the “stoichiometry N” value was ~1 FANCI:FANCD2.

On to B4, for which the binding result in data set [2] is “binds”.

Take B5: the binding result in data set [2] was “no binding”.

A word on the stoichiometry N: it is a count of units in the complex or per binding partner.
